The values that follow come from publication PMC5932559, “Defective mitochondrial protease LonP1 can cause classical mitochondrial disease” (Human Molecular Genetics, 2018).

B4: p.(Glu733Lys) LonP1 mutant lacking the mitochondrial targeting sequence, C-terminal 6xHis (enzyme, human, UniProt P36776-1 115-959, looked up)
chain: MTIPDVFPHLPLIAITRNPVFPRFIKIIEVKNKKLVELLRRKVRLAQPYVGVFLKRDDSNESDVVESLDEIYHTGTFAQIHEMQDLGDKLRMIVMGHRRVHISRQLEVEPEEPEAENKHKPRRKSKRGKKEAEDELSARHPAELAMEPTPELPAEVLMVEVENVVHEDFQVTEEVKALTAEIVKTIRDIIALNPLYRESVLQMMQAGQRVVDNPIYLSDMGAALTGAESHELQDVLEETNIPKRLYKALSLLKKEFELSKLQQRLGREVEEKIKQTHRKYLLQEQLKIIKKELGLEKDDKDAIEEKFRERLKELVVPKHVMDVVDEELSKLGLLDNHSSEFNVTRNYLDWLTSIPWGKYSNENLDLARAQAVLEEDHYGMEDVKKRILEFIAVSQLRGSTQGKILCFYGPPGVGKTSIARSIARALNREYFRFSVGGMTDVAEIKGHRRTYVGAMPGKIIQCLKKTKTENPLILIDEVDKIGRGYQGDPSSALLELLDPEQNANFLDHYLDVPVDLSKVLFICTANVTDTIPEPLRDRMEMINVSGYVAQEKLAIAERYLVPQARALCGLDESKAKLSSDVLTLLIKQYCRESGVRNLQKQVEKVLRKSAYKIVSGEAKSVEVTPENLQDFVGKPVFTVERMYDVTPPGVVMGLAWTAMGGSTLFVETSLRRPQDKDAKGDKDGSLEVTGQLGEVMKESARIAYTFARAFLMQHAPANDYLVTSHIHLHVPEGATPKDGPSAGCTIVTALLSLAMGRPVRQNLAMTGEVSLTGKILPVGGIKEKTIAAKRAGVTCIVLPAENKKDFYDLAAFITEGLEVHFVEHYREIFDIAFPDEQAEALAVER
notes: A variant found in a patient and in ExAC; also called E733K; hGlu733Lys

In series [1] the target is T1, 1:1 mixture of wild-type and p.(Tyr565His) LonP1, oligomerised by dialysis from high salt (human, UniProt P36776-1 115-959; P36776-1 115-959, p.(Tyr565His)).
T1 construct: as the chain of m1; as the chain of m2; also called WT/Y565H; WT + Y565H; source: equimolar purified LonP1 forms mixed in high salt, oligomerised by dialysis
In words: MST; as a3, with 4 mM AMP-PNP; LonP1 forms or 1:1 mixtures titrated (2.3-4650 nM) against labelled TFAM; 24°C. The conditions noted are these: both partners purified.

The target in series [2] is T2, 1:1 mixture of wild-type and p.(Glu733Lys) LonP1, oligomerised by dialysis from high salt (human, UniProt P36776-1 115-959; P36776-1 115-959, p.(Glu733Lys)).
T2 construct: as the chain of m1; as the chain of m3; The make-up of the oligomers (heterohexamers or separate homohexamers) was not determined; also called WT/E733K; WT + E733K; source: equimolar purified LonP1 forms mixed in high salt, oligomerised by dialysis
The series is described as above. The note with it: both partners purified.

Series [3] concerns the target T3, wild-type LonP1 lacking the mitochondrial targeting sequence, C-terminal 6xHis (human, UniProt P36776-1 115-959).
T3 construct: called the mature protein; Hexamer at low salt with ATP, mostly monomer in 1 M NaCl without ATP; also called WT; LonP1 wild-type; source: pET-20b, induced with 1 mM IPTG, purified (His-Select nickel, HiTrap Heparin, MonoQ, Superdex 200)
T3 sequence (looked up): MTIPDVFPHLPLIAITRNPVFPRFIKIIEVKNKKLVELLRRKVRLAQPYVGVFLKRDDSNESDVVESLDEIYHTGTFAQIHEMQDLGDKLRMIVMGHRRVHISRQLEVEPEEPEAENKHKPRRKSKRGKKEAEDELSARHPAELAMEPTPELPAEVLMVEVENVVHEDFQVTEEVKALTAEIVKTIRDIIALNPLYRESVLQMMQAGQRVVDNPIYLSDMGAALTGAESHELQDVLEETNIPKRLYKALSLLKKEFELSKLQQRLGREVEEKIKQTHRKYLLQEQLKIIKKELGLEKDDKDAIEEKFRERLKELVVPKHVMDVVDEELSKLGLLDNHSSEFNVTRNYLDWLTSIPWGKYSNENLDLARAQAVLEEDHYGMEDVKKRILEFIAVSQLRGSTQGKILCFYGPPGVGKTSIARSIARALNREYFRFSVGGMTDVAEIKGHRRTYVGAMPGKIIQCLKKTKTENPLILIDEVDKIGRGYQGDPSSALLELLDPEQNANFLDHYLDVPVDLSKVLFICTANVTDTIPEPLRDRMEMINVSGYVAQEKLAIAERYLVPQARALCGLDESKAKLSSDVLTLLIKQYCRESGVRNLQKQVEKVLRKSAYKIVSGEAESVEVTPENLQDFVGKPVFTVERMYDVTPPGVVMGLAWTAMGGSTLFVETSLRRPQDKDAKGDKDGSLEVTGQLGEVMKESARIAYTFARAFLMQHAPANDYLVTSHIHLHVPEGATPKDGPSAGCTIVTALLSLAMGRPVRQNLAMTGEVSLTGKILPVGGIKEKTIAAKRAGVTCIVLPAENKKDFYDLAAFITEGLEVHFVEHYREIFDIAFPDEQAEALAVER
The series can be described thus: MST; TFAM labelled with NT-547-maleimide, unlabelled LonP1 titrated (2.3-4650 nM); MST buffer (50 mM Tris-HCl pH 8.0, 10 mM MgCl2, 10% glycerol) without nucleotide; 24°C; Monolith NT.115. The conditions noted are these: both partners purified.

The target in series [4] is B4. The description is as above. The conditions noted are these: both partners purified.
A further series has as its target T4, TFAM (UniProt Q00059 43-246, NT-547-maleimide dye on cysteine (for microscale thermophoresis)).
T4 chain: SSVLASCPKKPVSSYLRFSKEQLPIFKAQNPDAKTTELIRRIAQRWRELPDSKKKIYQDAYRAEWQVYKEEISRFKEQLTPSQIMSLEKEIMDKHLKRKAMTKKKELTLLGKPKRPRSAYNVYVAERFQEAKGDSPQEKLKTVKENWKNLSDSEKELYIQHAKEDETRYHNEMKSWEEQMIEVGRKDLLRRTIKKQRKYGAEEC
In words: MST; 4 mM AMP-PNP.

Series [5] deals with the molecule itself. In words: SEC; Superose 6 Increase 10/300; 20 mM Tris-HCl pH 8.0, 10% glycerol, 2 mM DTT, 50 mM NaCl, 10 mM MgCl2, samples incubated 10 min at 37°C with ATP (1 mM in the methods, 4 mM in the legend); fractions on SDS-PAGE, size calibration curve; in 1 M NaCl without ATP higher-order oligomers were largely prevented.

What is called Kd is the concentration at which binding is half-saturated. In general, stoichiometry N refers to a count of units in the complex or per binding partner.

B1: TFAM (natural protein, UniProt Q00059 43-246, looked up)
chain: SSVLASCPKKPVSSYLRFSKEQLPIFKAQNPDAKTTELIRRIAQRWRELPDSKKKIYQDAYRAEWQVYKEEISRFKEQLTPSQIMSLEKEIMDKHLKRKAMTKKKELTLLGKPKRPRSAYNVYVAERFQEAKGDSPQEKLKTVKENWKNLSDSEKELYIQHAKEDETRYHNEMKSWEEQMIEVGRKDLLRRTIKKQRKYGAEEC
modifications: NT-547-maleimide dye on cysteine (for microscale thermophoresis)
notes: TFAM, the mitochondrial transcription and mtDNA packaging factor and a LonP1 substrate; recombinant; It was unlabelled in the proteolysis assays; also called TFAM substrate
As for B1, the equilibrium dissociation constant (Kd) in series [1] was determined as 3220 nM; in series [2], 2170 nM; in series [3], 1360 nM; in series [4], 1520 nM.

B2: wild-type LonP1 lacking the mitochondrial targeting sequence, C-terminal 6xHis (enzyme)
chain: MTIPDVFPHLPLIAITRNPVFPRFIKIIEVKNKKLVELLRRKVRLAQPYVGVFLKRDDSNESDVVESLDEIYHTGTFAQIHEMQDLGDKLRMIVMGHRRVHISRQLEVEPEEPEAENKHKPRRKSKRGKKEAEDELSARHPAELAMEPTPELPAEVLMVEVENVVHEDFQVTEEVKALTAEIVKTIRDIIALNPLYRESVLQMMQAGQRVVDNPIYLSDMGAALTGAESHELQDVLEETNIPKRLYKALSLLKKEFELSKLQQRLGREVEEKIKQTHRKYLLQEQLKIIKKELGLEKDDKDAIEEKFRERLKELVVPKHVMDVVDEELSKLGLLDNHSSEFNVTRNYLDWLTSIPWGKYSNENLDLARAQAVLEEDHYGMEDVKKRILEFIAVSQLRGSTQGKILCFYGPPGVGKTSIARSIARALNREYFRFSVGGMTDVAEIKGHRRTYVGAMPGKIIQCLKKTKTENPLILIDEVDKIGRGYQGDPSSALLELLDPEQNANFLDHYLDVPVDLSKVLFICTANVTDTIPEPLRDRMEMINVSGYVAQEKLAIAERYLVPQARALCGLDESKAKLSSDVLTLLIKQYCRESGVRNLQKQVEKVLRKSAYKIVSGEAESVEVTPENLQDFVGKPVFTVERMYDVTPPGVVMGLAWTAMGGSTLFVETSLRRPQDKDAKGDKDGSLEVTGQLGEVMKESARIAYTFARAFLMQHAPANDYLVTSHIHLHVPEGATPKDGPSAGCTIVTALLSLAMGRPVRQNLAMTGEVSLTGKILPVGGIKEKTIAAKRAGVTCIVLPAENKKDFYDLAAFITEGLEVHFVEHYREIFDIAFPDEQAEALAVER
In the series with TFAM, B2 came in with a Kd of 2200 nM.

B3: p.(Tyr565His) LonP1 mutant lacking the mitochondrial targeting sequence, C-terminal 6xHis (enzyme, human, UniProt P36776-1 115-959, looked up)
chain: MTIPDVFPHLPLIAITRNPVFPRFIKIIEVKNKKLVELLRRKVRLAQPYVGVFLKRDDSNESDVVESLDEIYHTGTFAQIHEMQDLGDKLRMIVMGHRRVHISRQLEVEPEEPEAENKHKPRRKSKRGKKEAEDELSARHPAELAMEPTPELPAEVLMVEVENVVHEDFQVTEEVKALTAEIVKTIRDIIALNPLYRESVLQMMQAGQRVVDNPIYLSDMGAALTGAESHELQDVLEETNIPKRLYKALSLLKKEFELSKLQQRLGREVEEKIKQTHRKYLLQEQLKIIKKELGLEKDDKDAIEEKFRERLKELVVPKHVMDVVDEELSKLGLLDNHSSEFNVTRNYLDWLTSIPWGKYSNENLDLARAQAVLEEDHYGMEDVKKRILEFIAVSQLRGSTQGKILCFYGPPGVGKTSIARSIARALNREYFRFSVGGMTDVAEIKGHRRTHVGAMPGKIIQCLKKTKTENPLILIDEVDKIGRGYQGDPSSALLELLDPEQNANFLDHYLDVPVDLSKVLFICTANVTDTIPEPLRDRMEMINVSGYVAQEKLAIAERYLVPQARALCGLDESKAKLSSDVLTLLIKQYCRESGVRNLQKQVEKVLRKSAYKIVSGEAESVEVTPENLQDFVGKPVFTVERMYDVTPPGVVMGLAWTAMGGSTLFVETSLRRPQDKDAKGDKDGSLEVTGQLGEVMKESARIAYTFARAFLMQHAPANDYLVTSHIHLHVPEGATPKDGPSAGCTIVTALLSLAMGRPVRQNLAMTGEVSLTGKILPVGGIKEKTIAAKRAGVTCIVLPAENKKDFYDLAAFITEGLEVHFVEHYREIFDIAFPDEQAEALAVER
notes: A variant found in a patient and in ExAC; also called Y565H; hTyr565His
In the case of B3, the “stoichiometry N” value in series [5] turned out to be 6.

Turning to B4, in series [5], the “stoichiometry N” value is 6.
